Results published in patent US20130243722A1.

Columns and labels:
Assay in all cases: cell-based or functional assay
[1] = molecular target: murine IL-12 receptor on mouse CD14- PBMC (mouse) (UniProt P97378)
[2] = molecular target: rat IL-12 receptor on rat PBMC (rat)
[3] = molecular target: rhesus monkey IL-12 receptor on rhesus monkey CD14- PBMC (rhesus monkey) (UniProt F6X0C8)
rhesus monkey IL-12 receptor on rhesus monkey CD14- PBMC (rhesus monkey), sequence (F6X0C8 entry or part of it): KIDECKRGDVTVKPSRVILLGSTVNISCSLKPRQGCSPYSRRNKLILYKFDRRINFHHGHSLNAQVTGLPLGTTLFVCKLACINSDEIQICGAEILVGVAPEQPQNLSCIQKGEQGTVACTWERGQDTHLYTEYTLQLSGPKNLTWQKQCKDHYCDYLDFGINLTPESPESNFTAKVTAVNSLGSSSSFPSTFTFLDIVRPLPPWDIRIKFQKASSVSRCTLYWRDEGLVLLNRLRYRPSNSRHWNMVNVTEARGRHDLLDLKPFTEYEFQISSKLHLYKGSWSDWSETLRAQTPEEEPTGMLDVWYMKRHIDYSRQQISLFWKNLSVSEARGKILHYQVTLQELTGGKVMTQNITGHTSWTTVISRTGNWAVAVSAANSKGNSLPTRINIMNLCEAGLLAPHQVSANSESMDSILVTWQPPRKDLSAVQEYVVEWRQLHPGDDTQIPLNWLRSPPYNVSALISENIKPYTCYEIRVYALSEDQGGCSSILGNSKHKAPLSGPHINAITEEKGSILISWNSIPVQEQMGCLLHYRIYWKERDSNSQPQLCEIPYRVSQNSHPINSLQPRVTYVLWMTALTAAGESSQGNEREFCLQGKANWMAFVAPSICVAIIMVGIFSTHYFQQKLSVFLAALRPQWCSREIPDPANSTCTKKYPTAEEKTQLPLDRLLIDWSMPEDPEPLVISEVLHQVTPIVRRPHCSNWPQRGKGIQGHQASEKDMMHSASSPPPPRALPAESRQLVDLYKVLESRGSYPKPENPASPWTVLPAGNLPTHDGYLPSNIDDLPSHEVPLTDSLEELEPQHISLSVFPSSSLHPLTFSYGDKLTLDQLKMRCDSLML

murine IL-12 receptor on mouse CD14- PBMC (mouse), sequence (P97378 24-874): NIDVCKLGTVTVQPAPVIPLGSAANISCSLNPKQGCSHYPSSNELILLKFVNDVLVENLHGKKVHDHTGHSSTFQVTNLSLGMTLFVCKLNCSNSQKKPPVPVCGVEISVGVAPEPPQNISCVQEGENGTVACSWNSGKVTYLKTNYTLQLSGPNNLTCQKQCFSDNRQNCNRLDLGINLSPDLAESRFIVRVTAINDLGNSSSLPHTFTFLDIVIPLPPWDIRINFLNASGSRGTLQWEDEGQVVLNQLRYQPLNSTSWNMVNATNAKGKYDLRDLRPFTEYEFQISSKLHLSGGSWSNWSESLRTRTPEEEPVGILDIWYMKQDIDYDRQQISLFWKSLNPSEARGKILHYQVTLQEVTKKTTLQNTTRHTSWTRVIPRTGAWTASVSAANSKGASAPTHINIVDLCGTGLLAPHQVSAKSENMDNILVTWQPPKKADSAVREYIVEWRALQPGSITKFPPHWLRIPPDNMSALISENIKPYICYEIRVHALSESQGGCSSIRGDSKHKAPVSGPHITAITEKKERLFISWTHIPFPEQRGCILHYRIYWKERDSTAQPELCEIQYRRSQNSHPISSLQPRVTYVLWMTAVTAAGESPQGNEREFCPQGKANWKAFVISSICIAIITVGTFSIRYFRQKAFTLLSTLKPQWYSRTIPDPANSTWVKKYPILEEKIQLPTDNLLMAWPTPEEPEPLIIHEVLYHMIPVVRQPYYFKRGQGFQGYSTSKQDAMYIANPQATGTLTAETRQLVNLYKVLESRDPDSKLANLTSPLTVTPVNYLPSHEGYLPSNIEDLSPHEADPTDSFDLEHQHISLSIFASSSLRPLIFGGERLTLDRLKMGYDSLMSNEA

EC50 for stimulating IFN-γ secretion from PBMC [1]	EC50 for stimulating IFN-γ secretion from PBMC [2]	EC50 for stimulating IFN-γ secretion from CD14- PBMC (ELISA, 16 hours) [3]	EC50 for stimulating IFN-γ secretion from CD14- PBMC (ELISA, 16 hours) [1]	Substance
> 1000 pM	> 1000 pM	1.05 pM		recombinant human IL-12 (from UniProt P29459 23-219; P29460 23-328) (ligand)
			0.35 pM	recombinant murine IL-12 (from UniProt P43431 23-215; P43432 24-335) (ligand)
